Source: paper PMC7617670, “Activity Regulation of a Glutamine Amidotransferase Bienzyme Complex by Substrate-Induced Subunit Interface Expansion” (ACS catalysis, 2025)
Substitutions are numbered along the chain they refer to. Numbers in names are those of the source.

Assays:
Assay in all cases: ITC; 250 μM PabB titrated into 25 μM PabA in the cell; 25 °C; 50 mM Tris/HCl pH 7.5, 50 mM KCl, 5 mM MgCl2; without Cho and Gln; one set of sites
Conditions in all cases: both partners purified
[1] = molecular target: T1, PabB variant bY210F (Escherichia coli, UniProt P05041 1-453, bY210F)
T1 construct: PabB, synthase subunit of ADCS, E. coli; construct as m2 with one exchange; Made by QuikChange mutagenesis from the construct of m2; source: E. coli BL21-Gold (DE3), purified (Ni-IMAC, preparative gel filtration)
T1 sequence: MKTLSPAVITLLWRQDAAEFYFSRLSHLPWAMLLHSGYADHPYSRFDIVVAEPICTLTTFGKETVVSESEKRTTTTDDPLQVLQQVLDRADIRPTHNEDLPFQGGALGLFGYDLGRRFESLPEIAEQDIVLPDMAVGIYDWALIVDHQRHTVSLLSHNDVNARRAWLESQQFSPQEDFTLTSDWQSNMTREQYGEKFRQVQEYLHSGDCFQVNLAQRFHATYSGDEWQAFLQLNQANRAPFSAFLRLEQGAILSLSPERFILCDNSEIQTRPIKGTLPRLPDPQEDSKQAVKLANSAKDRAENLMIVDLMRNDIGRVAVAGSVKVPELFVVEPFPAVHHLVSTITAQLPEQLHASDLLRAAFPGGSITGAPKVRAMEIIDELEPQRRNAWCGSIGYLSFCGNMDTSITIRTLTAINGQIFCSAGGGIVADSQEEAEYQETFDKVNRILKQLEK

[2] = molecular target: T2, PabB variant bE119R (Escherichia coli, UniProt P05041 1-453, bE119R)
T2 construct: PabB, synthase subunit of ADCS, E. coli; construct as m2 with one exchange; Made by QuikChange mutagenesis from the construct of m2; source: E. coli BL21-Gold (DE3), purified (Ni-IMAC, preparative gel filtration)
T2 sequence: T1 sequence with E119R, F210Y

[3] = molecular target: T3, PabB variant bY210A (Escherichia coli, UniProt P05041 1-453, bY210A)
T3 construct: PabB, synthase subunit of ADCS, E. coli; construct as m2 with one exchange; Made by QuikChange mutagenesis from the construct of m2; source: E. coli BL21-Gold (DE3), purified (Ni-IMAC, preparative gel filtration)
T3 sequence: T1 sequence with F210A

B1: PabA, glutaminase subunit of aminodeoxychorismate synthase (ADCS) from Escherichia coli, wild type (enzyme)
chain: MILLIDNYDSFTWNLYQYFCELGADVLVKRNDALTLADIDALKPQKIVISPGPCTPDEAGISLDVIRHYAGRLPILGVCLGHQAMAQAFGGKVVRAAKVMHGKTSPITHNGEGVFRGLANPLTVTRYHSLVVEPDSLPACFDVTAWSETREIMGIRHRQWDLEGVQFHPESILSEQGHQLLANFLHR
notes: PabA, class I glutaminase subunit of ADCS, E. coli; the gene was cloned into pET28a; Form used for SEC, ITC and kinetics; TEV cleavage is told only of the proteins used for crystallization; The G5H-Tag stands between the TEV site and the start methionine of PabA; also called wt PabA; ADCS glutaminase subunit; source: E. coli BL21-Gold (DE3), purified (Ni-IMAC, preparative gel filtration)
- Kd [1]: 530 nM
- Kd [2]: 540 nM
- Kd [3]: 5500 nM
